{"source": "the domain aggregation screens of Martell et al. (2025)", "data": [{"assay": "soluble fraction after stress (log2 fold change); higher = more stays soluble; pooled small domains, quantitative proteomics", "details": "stress: pH 4", "summary_of_the_method": "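With high-throughput quantitative proteomics, pooled custom libraries of small protein domains were measured after pH 4 stress. Each domain's soluble amount after the stress gives a fold change taken as aggregation propensity. Higher log2 values mean more of the domain stayed soluble.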", "values": [{"sequence": "HMQISYDVPNLIGKSYEEVMTDPSILGEHFTVVLGETKTDEDTDAGVILHQDPAADSKVQDEVTPITVTVS", "soluble fraction (log2)": 0.0589}, {"sequence": "HMQITDTEAIATTLDEIIAANPKEWERLKAGQEQLVKFFVGQVMRVTKGRANPQVVNDLLKERL", "soluble fraction (log2)": 0.186}, {"sequence": "HMQITNEGQIKLVISEVLNENQEQKKQYLSGKEQVLGYLIGKVMQKTKGKANPKLVNDLMIKELS", "soluble fraction (log2)": 0.217}, {"sequence": "HMQITSTDEIEKMIDELIAANPEQTKQYQNGNHKVAGWFVGQMMKASKGKANPQMVNNLLQKKL", "soluble fraction (log2)": 0.166}, {"sequence": "HMQITTVSPKNYAEAELIGQRFREGNPVVMDLSKLDSDLGQRLVDFASGLVFALNGTVERIAKKVFLLSP", "soluble fraction (log2)": -0.748}, {"sequence": "HMQIVHKHLQLQPDQGALRAALYSHKAVVAEQVNEQGAINLEIKLAESDFLRLLKSSGLKLQDLVSLS", "soluble fraction (log2)": -1.16}, {"sequence": "HMQKAQEYILVDIKGEVQTPGVYKLPVNSRVIDAIEASGGLTKKAVTTYINLSKTLKDENVIIINKKSEL", "soluble fraction (log2)": -0.0717}, {"sequence": "HMQKITPDNWTYIRSLIRQKWSPDQIDQWLKKHPDVGFTVSRETIYQYVKEDRQKDGDLYLSLRRAGKSY", "soluble fraction (log2)": -1.11}, {"sequence": "HMQKLKINKYKDPKGEIRYYIASTIRNGNKSSTHNLLSLGKHSDLLKEHSDVEAYLKERLNEAMESGI", "soluble fraction (log2)": 0.307}, {"sequence": "HMQKPDIEVDFAEGDMVVVTGGAWKDTAGVITGINMQKQTVTINVELFGRETPVEISFTEIKKA", "soluble fraction (log2)": -0.799}, {"sequence": "HMQKVPDAFKAEQVQTLITRLGVSRAELARTLDVSLSTVNKWASGAVEPKGSALVLLKVLWMHGFKAL", "soluble fraction (log2)": 0.03}, {"sequence": "HMQLDDDQKEELILKLIDSLDTTKKGAPLTELAREAAKSNIGESELEEITTSLLDKGLVYEPTIGKMKR", "soluble fraction (log2)": 0.0111}, {"sequence": "HMQLDLNENEKIIFEILQNNKTMQLSNLKTQTELSNKGWDKAIKSLTKQGLAKVSKIDNELIVEFL", "soluble fraction (log2)": -0.723}, {"sequence": "HMQLKFTDLRKEILRMIWEGHGPQKAYDLLNKLQQTNPSAKPATVYRALDFLIGNGFIHKVASLNAFVG", "soluble fraction (log2)": -0.942}, {"sequence": "HMQLKKDTILSYIEEKLIDSYNSNKGFTTQEISVALNMQRTNVSAILNNLVKENKLVKTKGKPVRYFLSG", "soluble fraction (log2)": -1.02}, {"sequence": "HMQLTPAQHAILAHALEHSDGKIVWFPDNIKGGARKKVLDGLLNRALITTDGTDWFVAAEGYDAMGR", "soluble fraction (log2)": 0.063}, {"sequence": "HMQLTVAVLIKNISKGQVISQGFLGFEARPERQIRGAYTNISEVLGRKAKSNIAVGTILKARHLDT", "soluble fraction (log2)": -0.49}, {"sequence": "HMQNAMQKELIDAFQKAYPDLDITKIELVYGTYYEVEAMNSTTEFTYRYDQNSKTFILAEQDNADP", "soluble fraction (log2)": -0.0395}, {"sequence": "HMQNELAEARSQLAERKNIDQAKLILMKKRNISEPEAYKLLRSHAMQTNRRVAEVAESIITAESLLG", "soluble fraction (log2)": 0.0831}, {"sequence": "HMQNGNLVDVYLNWRGKYYAIKMFFPNSKMPRRSDVQDQIVKVYPDARVQSFQVSKYVPGQPFL", "soluble fraction (log2)": -0.431}, {"sequence": "HMQNLSELAYVNLRDALMQGQMKPGEELPLRPISRSFGISATPMREALLRLVTESALEMDSRGRISVP", "soluble fraction (log2)": -0.183}, {"sequence": "HMQNPYDTLGVSRDSTDAEIKKAYRKLAMEHHPDKGGDSQRFAEINNAYDNIKDMSSRQNFENDPSNFQ", "soluble fraction (log2)": 0.186}, {"sequence": "HMQNVFARKNLTSVSVDKLGEEEILLFKQSFESKNLTSSEALRDLSKKGMSEAELRKLKVRLTQL", "soluble fraction (log2)": -0.177}, {"sequence": "HMQNWFADPKFEMFEDYGDAQSFYDTETKNIYVVMAEYGQKGSNTIQEITPDSEEYIPNYEKYKEYMENK", "soluble fraction (log2)": -1.42}, {"sequence": "HMQNYLEFIGNELKALTSIPSPSGYTKDVAAYLMKTLSDMGYEPQLSNKGNVFVTIGGEGNPLVLAAHVD", "soluble fraction (log2)": -0.436}, {"sequence": "HMQNYLEVLRLHELGMGQRKIAQQVHTSRDTIRKIIAIAENQGLNYSNLIGKTDNELSKVFG", "soluble fraction (log2)": 0.0958}, {"sequence": "HMQPAGEGAILRYLSSGAVKGIGPVMAREIVRRFGTDTFRVMEQEPEKLLKVKGITEQRLQTIMESYQD", "soluble fraction (log2)": 0.145}, {"sequence": "HMQPDPAFVAWVDANPWYKENRTLRALVHDYAEEVKRQEPALIGTAFLDRVKQLVQSEHPELFD", "soluble fraction (log2)": -0.502}, {"sequence": "HMQPETIEDATNLYLEAARATLQLIEQNNVIARDVKRLLEHLDNDMARIETLLAEMLSRRDHWLRHIH", "soluble fraction (log2)": 0.185}, {"sequence": "HMQPIQPNQAKYLDGLSSKYKGKGNHSQAAQLTALRDALNAGDHAKAREIYDKLDYEPQAEAAH", "soluble fraction (log2)": 0.105}, {"sequence": "HMQPNVTRERILAAAMTVFAQKGWQKTSLDEVAAAAGMTKGAIYWHFRNKNDLFFALLDARLQRD", "soluble fraction (log2)": -1.08}, {"sequence": "HMQQAVTMQKPGRLLRNADGNGGAVRDLDVGMMLYPTGNRSELMWEVDDELGNRGWVNSTLFGLS", "soluble fraction (log2)": -0.585}, {"sequence": "HMQQDGSSSLGENMLNQELQARGVVPSEIPQEVWERVIQEAGKKSKREIYADIGLGRSLAAGFAQRLAA", "soluble fraction (log2)": -0.0576}, {"sequence": "HMQQDVLKLKSGGNYKGEYINIESAYVLFKPEGGNATQRIKVNEIQMLKLADGTEVIFGGRVK", "soluble fraction (log2)": 0.297}, {"sequence": "HMQQEPNFYIVDGNTNQIVDRYYAPDSNVAHQYLGQWRQQHDPQETGNYRYGRLSSETEERYRNLAA", "soluble fraction (log2)": 0.188}]}]}
